According to patent US20210284724A1 (I MAB BIOPHARMA US, published 2021):
Where a chain is given by its changes, count along the chain named.

T1: human CXCL13 (human, UniProt O43927 23-109)
T1 construct: also called huCXCL13; rhCXCL13
T1 sequence (looked up): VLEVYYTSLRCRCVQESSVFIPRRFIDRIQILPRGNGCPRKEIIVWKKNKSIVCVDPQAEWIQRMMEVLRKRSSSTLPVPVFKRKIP

T2: cynomolgus CXCL13 (cynomolgus, UniProt H6WS58 23-109)
T2 construct: also called cynoCXCL13; Cyno CXCL13
T2 sequence: T1 sequence (looked up) with S8H, L32S, I52V, M65I, V68M, R72K, L77P

T3: mouse CXCL13 (mouse, UniProt O55038 22-109)
T3 construct: also called rmCXCL13
T3 sequence (looked up): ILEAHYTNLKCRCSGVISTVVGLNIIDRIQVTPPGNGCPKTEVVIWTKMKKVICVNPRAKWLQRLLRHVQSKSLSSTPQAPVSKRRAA

B1: 430D9B3 (antibody, V domains shown)
VH: QVTLKESGPEILQPSQTLSLTCTFSGFSLSPYGMGVGWIRQPSGKGLEWLANIWWDDDKYYNPSLINRLTISKDTSNNQAFLKITNVDTTDSATYYCVRSELVMPYVPFDYWGQGVMVTVSS
VL: DIQMTQSPSSMSASLGDRVTITCQASQDIENDLIWFQQKPGKSPRPLIYYATNLANGVPSRFSGRRSESNYSLTISSLESEDMADYHCLQFKQYPYTFGAGTKLELK
notes: Hybridoma mAb
B2: 423A6H6 (antibody, V domains shown)
VH: B1 VH with E10G, P31T, I66Q, T90A, S92T, V98A, V103I, M117R
VL: B1 VL with E30D, D32H, L47M, R65S, E68G, N70D, Y96F, A100S, L106I
notes: Hybridoma mAb
B3: 418D3H6 (antibody, V domains shown)
VH: B1 VH with E10G, P31T, D74N, T89A, T90P, S92T, V98A, Y111F, V116I
VL: DIQMTQSPSSLSASLGDRITMTCQASQDIGIELIWFQQKPGKSPWPVIYYTANLASGVPSRFSGSRSGSHYSLTISSLESEDMADYHCLQYKQYPFTFGSGTKLEIK
notes: Hybridoma mAb
B4: 427C4F11 (antibody, V domains shown)
VH: QVTLKESGPGILQPSQTLSLTCTFSGFSLTTYGMGVGWIRQPSGKGLEWLANIWWDDDKYSNPSLQSRLTISKDTSNNQAFLTITNVDTADTATYYCARSELVMPYVPFDYWGQGVRVTVSS
VL: B1 VL with E30D, D32H, K42R, L47M, R65S, E68G, N70D, Y96F, A100S, L106I
notes: Hybridoma mAb
B5: 424H7F2 (antibody, V domains shown)
VH: B1 VH with S19T
VL: B1 VL with S72A
notes: Hybridoma mAb; also called surrogate anti-CXCL13 antibody
B6: 402H2G12 (antibody, V domains shown)
VH: B4 VH with T30S, S61Y, S67N, T83K, T85N, V103I
VL: B1 VL with E30D, D32H, L47M, R65S, E68G, N70D, Y96F, A100S, L106I
notes: Hybridoma mAb
B7: 442C9H4 (antibody, V domains shown)
VH: B1 VH with E10G, T23S, P31T, D74N, T89A, T90P, S92T, V98A, Y111F, V116I
VL: B3 VL with M21I, E32D
notes: Hybridoma mAb
B8: 445A6G7 (antibody, V domains shown)
VH: B1 VH
VL: B1 VL with E30G
notes: Hybridoma mAb
B9: 416C9H8 (antibody, V domains shown)
VH: B1 VH
VL: B1 VL with I34V, K42R, N70D
notes: Hybridoma mAb
B10: 432C12E1 (antibody, V domains shown)
VH: B1 VH with E10G, P31T, I66K, T90A, S92T, V98A, L102I
VL: B1 VL with E30G, L47M, R65S, R66G, E68G, N70V, Y96F, A100S, L106I
notes: Hybridoma mAb
B11: 329F2E1 (antibody, V domains shown)
VH: EVKLLQSGGGLVQPGGSLKLSCAASGIDFSRYWMSWVRRAPGKGLEWIGEINPDSSTINYAPSLKDKFIISRDNAKNTLYLQMSKVRSEDTALYYCARQDDYDYYAMDYWGQGTSVTVSS
VL: DIVMTQSHKFMSTSVGDRVSITCKASQDVSTGVAWYQQKPGQSPKLLIYSASYRYTGVPDRFTGSGSRTDFTFTISSVQTEDPAVYYCHQYYTIPLTFGAGTELELK
notes: Hybridoma mAb
B12: 71F4A3 (antibody, V domains shown)
VH: B11 VH with D103E
VL: B11 VL with F10S, S30N, Q37R, R68G, T80A, P83L, H89Q, T93S, I94T, E103K
notes: Hybridoma mAb
B13: 178B2E8 (antibody, V domains shown)
VH: EVKLVESEGGLVQPGSSMKLSCTASGFTFTDYYMTWVRQVPEKGLEWVANINYDGSRTNYLDSLKSRFIISRDNAKNILYLQMSSLKSEDTATYYCARDGNYHFYGMDYWGQGTSVTVSS
VL: DFVLTQSHKFMSTSVGDRVSITCKASQDVSTAVAWYQQKPGQSPQLLIYWASTRHTGVPDRFTGSGSGTDYTLTISSVQAEDLALYYCQQHYSTPWTFGGGTKLEIK
notes: Hybridoma mAb
B14: 339A9E7 (antibody, V domains shown)
VH: DVQLQESGPGLVKPSQSLSLTCTVTGYSITSDYAWNWNRQFPGNKLEWMGYISYSGDTSYNPSLRSRISITRDTSKNQFFLQLNSVTAEDTAKYYCVAGHFDYWGQGTTLTVSS
VL: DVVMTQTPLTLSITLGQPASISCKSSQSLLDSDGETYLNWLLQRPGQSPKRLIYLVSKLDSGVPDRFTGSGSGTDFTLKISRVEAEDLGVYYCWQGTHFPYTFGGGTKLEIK
notes: Hybridoma mAb
B15: 1H3A11 (antibody, V domains shown)
VH: EVQLVESGGGLVKPGGSLKLSCAASGFTFSSYAMSWVRQTPEKRLEWVATISDGGSDTYYPDNVKGRFTISRDNAKNNLYLQMSHLKSEDTAMYYCARDYYGSSYEDYAMDYWGQGTSVTVSS
VL: DIQMTQSPSSLSASLGGKVTITCKASQDINKYITWYQHKPGKGPRLLIHYTSTLQPGIPSRFSGSGSGRDYSFSISNLEPEDIATYYCLQYDNLYTFGGGTKLEIK
notes: Hybridoma mAb
B16: 537C8D7 (antibody, V domains shown)
VH: EVQLVESGGGLVLPGRSLKLSCAASGFTFSDYAMAWVRQAPKKGLEWVATVFYDGSDTFYRDSVKGRFTISRDNAKSTLYLQMDSLRSEDTATYYCAREGDYYSRHVYVGYNWFPHWGQGTLVTVSS
VL: DIRMTQSPASLSASLGETVNIECLTSEDINSELAWYQQKPGKFPQFLIYNANSLQDGVPSRFSGSGSGTQYSLKINSLQSEDVATYFCQQYNSYPLTFGSGTELEIK
notes: Hybridoma mAb
B17: 414D10F5 (antibody, V domains shown)
VH: EVQLAESGGGLVQPGRSLKLSCSASGFTFSDYYMAWFRQAPPKGLEWVASISYDGGDSFYRDSVKGRFTISRDNAKSSLYLQMDSLRSEDTATYYCTTEEDYSGSFPDYWGQGVMVTVSS
VL: DIQMTQSPSFLSASVGDRVTINCKASQNINKYLNWYQQKLGEAPKRLIYDTNNLQAGIPSRFSGSGSGTDYTLTINSLQPEDFATYFCLQHNSLYTFGGGTKLELK
notes: Hybridoma mAb
B18: 21H12D9 (antibody, V domains shown)
VH: EVQLQQSGPVLVRPGASVKMSCKASGYTFTDYYMNWVKQSHGKSLEWIGVINPNNGGTTYKEKFKGKATLTVDKSSGTAYMELNSLTSEDSAVYYCARDDYDAGYWGQGTTLTVSS
VL: DIVMTQFQKFMSTTVGDRVSITCKASQNVDTAVAWYQHKPGQSPKLLIYSASHRYTGVPDRFTGSGSGTDFTLTISNVQSEDLADYFCQQYTDFPLTFGAGTKLELK
notes: Hybridoma mAb

Legend:
[1] = molecular target: T1, human CXCL13; assay: cell-based blocking ELISA, CXCL13 to CHO-K1-CXCR5
Protocol: Splenocytes were electro-fused with mouse myeloma cell line SP2/0 cells and plated into 96-well culture plate. The hybridoma supernatants were tested by ELISA binding assay for anti-human CXCL13 binders. Supernatants of positive binding clones were screened for function in blocking of human CXCL13 binding to its […] CXCR5 by Cell-based receptor blocking ELISA assay. Briefly, 5×10⁴ CHO-K1-CXCR5 cells were plated in 96-well plate with 100 μl of culture medium and incubated at 37° C. overnight. Cells were fixed with 100 μl of 2% PFA at RT for 1 hr after washing with PBS for 1 time. Blocking was done with 1% BSA in PBST for 1 hr at RT. Supernatants were diluted with PBS and pre-incubated with equal volume of 0.3 μg/ml human CXCL13 for 30 min at RT. 100 μl of antibody-antigen complex was then transferred into each cell wells for 30 min at RT. The samples were washed with 1×PBST for 3 times and 100 μl of 3 μg/ml of human Mab5261 antibody was add into each well to capture human CXCL13 and anti-human Fc-HRP was used to indirectly detect human CXCL13 when it bound to CHO-K1-CXCR5 cells. […] Reading was done at […].
Those antibodies were purified from hybridoma supernatants by binding with Protein G column and characterized by ELISA binding assays and cell-based blocking ELISA assays. […] 11/20 clones bound to both human CXCL13 and cynomolgus CXCL13 appeared to completely block human CXCL13 to human CXCR5. 11 blockers bound to both huCXCL13 and cynoCXCL13 were produced as chimeric human IgG1 antibodies for further Characterization.

[2] = molecular target: T2, cynomolgus CXCL13; assay: ELISA, coated antigen
[3] = molecular target: T1, human CXCL13; assay: ELISA, coated antigen
[4] = molecular target: T3, mouse CXCL13; assay: ELISA, coated antigen

| Binder | IC50 [1] [µg/mL] | binding result [2] | EC50 [3] [µg/mL] | EC50 [4] [µg/mL] | EC50 [2] [µg/mL] | binding result [4] |
| --- | --- | --- | --- | --- | --- | --- |
| B1 | 3.85 | no binding | 0.0265 | 0.0547 |  |  |
| B2 | 8.96 | no binding | 1.56 | 0.248 |  |  |
| B3 | 23.3 | no binding | 48.7 | 7.49 |  |  |
| B4 | 7.92 | no binding | 1.33 | 0.202 |  |  |
| B5 | 1.1 | no binding | 0.0109 | 0.0121 |  |  |
| B6 | 8.72 | no binding | 0.00578 | 0.0357 |  |  |
| B7 | 18.2 | no binding | 9.85 | 2.96 |  |  |
| B8 | 14.9 | no binding | 2.91 | 1.23 |  |  |
| B9 | 8.46 | no binding | 5.84 | 1.97 |  |  |
| B10 | 12.7 | no binding | 5.1 | 0.744 |  |  |
| B11 | 0.615 |  | 0.0166 |  | 0.0125 | no binding |
| B12 | 3.02 |  | 0.0266 |  | 1.01 | no binding |
| B13 |  | no binding | 0.42 |  |  | no binding |
| B14 | 13.3 |  | 0.0216 |  | 0.0245 | no binding |
| B15 | 10.1 |  | 0.0633 |  | 0.145 | no binding |
| B16 | 2.46 | no binding | 0.0128 | 0.0375 |  |  |
| B17 | 1.14 |  | 0.0104 |  | 0.019 | no binding |
| B18 | 1.27 |  | 0.0156 |  | 0.0619 | no binding |
